Holding throughout (test): cell-based or functional assay
Assay [1] addresses Semliki Forest virus E1 fusion protein, low pH-induced trimeric form (full-length viral E1 of cell-b (Semliki Forest virus) (UniProt P03315)).
Assay [2] has as its target Dengue virus 1 (DV1, strain Western Pacific) E fusion protein (Dengue virus 1) (UniProt P17763).
For assay [3], the target named is Dengue virus 2 (DV2, strain New Guinea C) E fusion protein (Dengue virus 2) (UniProt P14340).

For the substance “DIII (SFV E1 domain III, Met + residues 291-383) (from UniProt P03315 1106-1198)”, the percent inhibition of SFV fusion in the FIA at ˜80 µM in assay [1] was found to be 60 % inhibition.

For the substance “DIIIS (SFV E1 domain III plus stem, Met + residues 291-412) (from UniProt P03315 1106-1227)”, the inhibition of SFV fusion with BHK cells, fusion-infection assay (FIA) in assay [1] turned out to be 6 µM.

With “DV2DIIIH1 (dengue virus 2 E domain III plus helix 1 of the stem, residues 296-415) (from UniProt P14340 576-695)”, in assay [2], the percent inhibition of DV1 fusion in the FIA at 50 µM turned out to be 70 % inhibition. This substance had a percent inhibition of DV2 fusion in the FIA at 50 µM in assay [3] of 70 % inhibition.

Values taken from patent publication US20090280473A1.
